Data: patent EP4725970A1 (Fortvita Biologics Inc., dated 2026)
Where two headings read alike, the source gives them in different places.

Key:
[1] = target: T1, human BCMA (full-length, on cells) (human, UniProt Q02223 1-184); test: cell-based or functional assay
T1 sequence: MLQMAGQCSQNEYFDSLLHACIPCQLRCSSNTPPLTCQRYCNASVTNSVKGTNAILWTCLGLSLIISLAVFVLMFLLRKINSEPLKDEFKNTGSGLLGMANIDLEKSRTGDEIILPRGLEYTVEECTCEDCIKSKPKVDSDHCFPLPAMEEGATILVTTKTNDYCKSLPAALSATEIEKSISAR

[2] = target: T2, cynomolgus monkey GPRC5D (full-length, on cells) (cynomolgus monkey, UniProt A0A2K5W6I7 1-300); test: flow cytometry, GS-CHO-cynoGPRC5D cells
T2 construct: also called cynoGPRC5D; GS-CHO-cynoGPRC5D
T2 sequence (A0A2K5W6I7 entry or part of it limits assumed, form in doubt): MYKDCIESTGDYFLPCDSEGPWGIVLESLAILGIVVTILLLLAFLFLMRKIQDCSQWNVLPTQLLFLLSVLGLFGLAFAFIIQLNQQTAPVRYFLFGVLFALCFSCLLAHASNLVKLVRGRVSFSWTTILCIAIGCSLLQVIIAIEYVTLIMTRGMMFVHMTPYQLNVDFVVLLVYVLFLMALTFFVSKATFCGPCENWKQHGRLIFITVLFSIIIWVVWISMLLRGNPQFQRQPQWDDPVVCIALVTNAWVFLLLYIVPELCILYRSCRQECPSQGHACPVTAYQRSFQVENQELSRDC

cyno CD3E&G-His/Free = target: T3, cyno CD3E&G-His/Free (cynomolgus monkey, UniProt Q95LI5 22-117; Q95LI7 23-113); test: BLI (Octet), 1:1 fit
T3 construct: Bought recombinant heterodimer; also called monkey CD3 E&G
T3 sequence (looked up) 1: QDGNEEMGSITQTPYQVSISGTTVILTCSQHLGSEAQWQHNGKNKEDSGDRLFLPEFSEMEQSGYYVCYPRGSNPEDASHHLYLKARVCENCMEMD
T3 sequence (looked up) 2: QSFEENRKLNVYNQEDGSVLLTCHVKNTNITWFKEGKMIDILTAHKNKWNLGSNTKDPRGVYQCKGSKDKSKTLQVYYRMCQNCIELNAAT

human CD3E&G-His/Free = target: T4, human CD3E&G-His/Free (human, UniProt P07766 23-126; P09693 23-116); test: BLI (Octet), 1:1 fit
T4 construct: Bought recombinant heterodimer; 'His/Free' as printed (one chain His-tagged); also called human CD3 E&G heterodimer
T4 sequence (P07766 23-126, chain 1 of 2): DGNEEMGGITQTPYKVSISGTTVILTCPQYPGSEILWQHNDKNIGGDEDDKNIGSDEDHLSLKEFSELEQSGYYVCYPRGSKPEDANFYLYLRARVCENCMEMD
T4 sequence (P09693 23-116, chain 2 of 2): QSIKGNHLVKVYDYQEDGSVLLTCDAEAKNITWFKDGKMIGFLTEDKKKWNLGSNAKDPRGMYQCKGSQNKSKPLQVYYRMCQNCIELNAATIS

[3] = target: T5, human GPRC5D (full-length, on cells) (human, UniProt Q9NZD1 1-345); test: cell-based or functional assay
T5 sequence (Q9NZD1 whole entry): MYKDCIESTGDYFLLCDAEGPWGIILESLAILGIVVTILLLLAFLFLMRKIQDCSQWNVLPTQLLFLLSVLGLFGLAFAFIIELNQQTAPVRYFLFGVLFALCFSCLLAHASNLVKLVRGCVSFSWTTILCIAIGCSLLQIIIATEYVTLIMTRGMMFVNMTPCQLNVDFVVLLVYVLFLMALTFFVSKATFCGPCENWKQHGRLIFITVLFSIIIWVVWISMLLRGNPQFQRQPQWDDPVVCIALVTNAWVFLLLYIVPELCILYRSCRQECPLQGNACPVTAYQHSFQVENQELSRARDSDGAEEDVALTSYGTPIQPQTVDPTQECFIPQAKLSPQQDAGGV

[4] = target: T6, human CD3 (on Jurkat cells and human T cells) (human, UniProt P07766 23-207); test: flow cytometry, Jurkat cells
T6 construct: whole, on cells; the other chains of the complex on the cells are not described; also called CD3E
T6 sequence (P07766 23-207): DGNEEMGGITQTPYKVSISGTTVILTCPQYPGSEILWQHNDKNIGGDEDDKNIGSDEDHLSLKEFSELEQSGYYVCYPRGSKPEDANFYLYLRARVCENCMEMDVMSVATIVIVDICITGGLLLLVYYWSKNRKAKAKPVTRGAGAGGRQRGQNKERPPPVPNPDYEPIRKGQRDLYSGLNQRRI

[5] = target: T5, human GPRC5D (full-length, on cells); test: flow cytometry, GS-CHO-hGPRC5D cells
BCMA-R27P (on cells) = target: T7, BCMA-R27P (on cells) (human, UniProt Q02223 1-184); test: flow cytometry on 293T and GS CHO cells (FIG. 2I, 2J)
T7 construct: also called hBCMA-R27P; 293T-hBCMA-R27P
T7 chain: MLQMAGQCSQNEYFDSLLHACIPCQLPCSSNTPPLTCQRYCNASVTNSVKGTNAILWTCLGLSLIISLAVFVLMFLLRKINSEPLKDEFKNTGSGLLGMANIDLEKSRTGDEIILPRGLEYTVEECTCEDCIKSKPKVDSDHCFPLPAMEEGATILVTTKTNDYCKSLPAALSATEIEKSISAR

BCMA-R39A (on cells) = target: T8, BCMA-R39A (on cells) (human, UniProt Q02223 1-184); test: as above
T8 construct: also called hBCMA-R39A; 293T-hBCMA-R39A
T8 chain: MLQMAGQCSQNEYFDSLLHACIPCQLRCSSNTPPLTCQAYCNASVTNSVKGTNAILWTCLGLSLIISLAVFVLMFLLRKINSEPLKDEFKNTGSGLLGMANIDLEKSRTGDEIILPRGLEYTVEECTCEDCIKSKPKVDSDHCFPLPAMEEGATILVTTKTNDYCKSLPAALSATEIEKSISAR

[6] = target: T6, human CD3 (on Jurkat cells and human T …); test: flow cytometry, human CD4 T cells
[7] = target: T1, human BCMA (full-length, on cells); test: cell-based or functional assay; remark: listed apart in the source
[8] = target: T5, human GPRC5D (full-length, on cells); test: cell-based or functional assay; remark: listed apart in the source
[9] = target: T9, cynomolgus monkey BCMA (full-length, on cells) (cynomolgus monkey, UniProt A0A2K5UD97 1-183); test: flow cytometry, GS-CHO-cynoBCMA cells
T9 construct: whole, on cells; also called cynoBCMA; GS-CHO-cynoBCMA
T9 sequence (A0A2K5UD97 entry or part of it): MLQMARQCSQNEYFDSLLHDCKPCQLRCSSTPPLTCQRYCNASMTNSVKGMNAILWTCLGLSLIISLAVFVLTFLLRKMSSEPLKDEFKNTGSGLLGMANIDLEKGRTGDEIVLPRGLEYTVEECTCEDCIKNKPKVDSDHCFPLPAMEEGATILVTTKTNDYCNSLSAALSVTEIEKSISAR

[10] = target: T6, human CD3 (on Jurkat cells and human T …); test: flow cytometry, human CD8 T cells
[11] = target: T5, human GPRC5D (full-length, on cells); test: cell-based or functional assay; remark: listed apart in the source
[12] = target: T1, human BCMA (full-length, on cells); test: flow cytometry, GS-CHO-hBCMA cells
[13] = target: T1, human BCMA (full-length, on cells); test: cell-based or functional assay; remark: listed apart in the source

B1: B3 (24) (hz5E12_sp34.24_497_triFab) (trispecific antibody, human IgG1, kappa, lambda, L234A L235A)
heavy 1: not shown
light 1: DIVMTQSPDSLAVSLGERATINCRASESVDSYGITFMNWYQQKPGQPPKLLIYAASNQGSGVPDRFSGSGSGTDFTLTISSLQAEDVAVYYCQQSKEVPWTFGQGTKLEIKRTVAAPSVFIFPPSDEQLKSGTASVVCLLNNFYPREAKVQWKVDNALQSGNSQESVTEQDSKDSTYSLSSTLTLSKADYEKHKVYACEVTHQGLSSPVTKSFNRGEC
heavy 2: not shown
light 2: DIQMTQSPSSLSASVGDRVTITCRASQSISRYLNWYQDKPGKAPKLLIYAASSLQSGVPSRFSGSGSGTDFTLTISSLQPEDFATYYCQQKYFDITFGGGTKVEIKRTVAAPSVFIFPPSDECLKSGTASVVCLLNNFYPREAKVQWKVDNALQSGNSQESVTEQDSKDSTYSLSSTLTLSKADYEKHKVYACEVTHQGLSSPVTKSFNRGES
light 3: QAVVTQEPSLTVSPGGTVTLTCRSSTGAVTTSNYANWVQKKPGQAPRGLIGGTNKRAPGVPARFSGSLLGDKAALTLLGAQPEDEAEYYCALWYSNLWVFGQGTKLTVLGQPKAAPSVTLFPPSSEELQANKATLVCLISDFYPGAVTVAWKADSSPVKAGVETTTPSKQSNNKYAASSYLSLTPEQWKSHRSYSCQVTHEGSTVEKTVAPTECS
notes: also called Exemplary antibody No. 1
EC50 of PBMC killing of H929 ko GPRC5D cells (LDH) [1]: 0.017 nM | EC50 [2]: 256 nM | Kd (cyno CD3E&G-His/Free): 9.51 nM | koff (cyno CD3E&G-His/Free): 0.00658 s⁻¹ | kon (cyno CD3E&G-His/Free): 692000 M⁻¹ s⁻¹ | Kd (human CD3E&G-His/Free): 13.3 nM | koff (human CD3E&G-His/Free): 0.00859 s⁻¹ | kon (human CD3E&G-His/Free): 646000 M⁻¹ s⁻¹ | EC50 of PBMC killing of H929 ko BCMA cells (LDH) [3]: 0.00149 nM | EC50 [4]: 34.5 nM | EC50 [5]: 80.7 nM | binding result (BCMA-R27P (on cells)): binds | binding result (BCMA-R39A (on cells)): binds | EC50 [6]: 53.6 nM | EC50 of PBMC killing of H929 ko GPRC5D cells, donor1 [7]: 0.0175 nM | EC50 of PBMC killing of H929 ko BCMA cells (LDH) [8]: 0.00698 nM | EC50 [9]: 14.2 nM | EC50 [10]: 54.5 nM | EC50 of PBMC killing of H929 ko BCMA cells, donor1 [11]: 0.00931 nM | EC50 [12]: 11.4 nM | EC50 of PBMC killing of H929 ko GPRC5D cells (LDH) [13]: 0.0867 nM
